The Human Domainome abundance scans (Beltran et al. 2025)
± gives the uncertainty stated by the source.

B1: Serine/threonine-protein kinase A-Raf, residues 21 to 89; numbered along this chain, P10398 (parent)
chain: VKVYLPNKQRTVVTVRDGMSVYDSLDKALKVRGLNQDCCVVYRLIKGRKTVTAWDTAIAPLDGEELIVE

Variants of: B1
Test: abundance fitness (aPCA) (normalised: wild type 0, dead -1); higher = more abundant; growth selection in yeast, the domain comes from the species named
Details: Homo sapiens

Variant | abundance fitness
VKVYLPNKQRTVVTVRDGMSVYDSLDKALKVRGLNQDCCVVYRLIPGRKTVTAWDTAIAPLDGEELIVE [K46P] | -0.941 ± 0.14
VKVYLPNKQRTVVTVRDGMSVYDSLDKALKVRGLNQDCCVVYRLIKGRKRVTAWDTAIAPLDGEELIVE [T50R] | -0.173 ± 0.35
VKVYLPNKQRTVVTVRDGMSVYDSLDKALKVRGLNQDCCVVYRLIKSRKTVTAWDTAIAPLDGEELIVE [G47S] | -0.734 ± 0.11
VKVYLPNKQRTVVTVRDGMSVYDSLDKALKVRGLNQDPCVVYRLIKGRKTVTAWDTAIAPLDGEELIVE [C38P] | -0.677 ± 0.14
VKVYLPNKQRTVVTVRDGMSVYDSLDKALKVRGLNQDCCVVYRLIRGRKTVTAWDTAIAPLDGEELIVE [K46R] | -0.024 ± 0.034
VKVYLPNKQRTVVTVRDGMSVYDSLDKALKVRGLNQDCCVVVRLIKGRKTVTAWDTAIAPLDGEELIVE [Y42V] | -0.864 ± 0.1
VKVYLPNKQRTVVTVREGMSVYDSLDKALKVRGLNQDCCVVYRLIKGRKTVTAWDTAIAPLDGEELIVE [D17E] | -0.032 ± 0.067
VKVYLPNKQRTVVTVRDGMSVYDSLDKALKVRGLNQDCCVVYRLIKPRKTVTAWDTAIAPLDGEELIVE [G47P] | -0.959 ± 0.19
VKVYLPNKQRTVVTVRDGMSVYDSLDKALKVRGLNQDCCVVYRLIKGRKTVTAWDVAIAPLDGEELIVE [T56V] | -0.235 ± 0.034
VKVYLPNKQRTVVTVRDGMSVYDSLDKALKVRGLNQDCCVVYRLIKGRKTVTAWDTAIAPLDGESLIVE [E65S] | -0.124 ± 0.092
VKVYLPNKQRTVVTVRDGMSVYDSLDKALNVRGLNQDCCVVYRLIKGRKTVTAWDTAIAPLDGEELIVE [K30N] | -0.478 ± 0.29
VKVYLPNKQRTVVTVRDGMSVYDSLDKALKVRGLNQDCCVVYELIKGRKTVTAWDTAIAPLDGEELIVE [R43E] | -0.824 ± 0.3
VKVYLPNKQRTVVTVRDFMSVYDSLDKALKVRGLNQDCCVVYRLIKGRKTVTAWDTAIAPLDGEELIVE [G18F] | -0.651 ± 0.073
VKVYLPNKQRTVVTVRDGMSVYDSLDKALKVRGLNQDCRVVYRLIKGRKTVTAWDTAIAPLDGEELIVE [C39R] | -0.987 ± 0.2
VKVYLPNKQRTVVTVRDGMSVYDSLDKALKVRGLNQDCCVGYRLIKGRKTVTAWDTAIAPLDGEELIVE [V41G] | -0.899 ± 0.12
VKVYLPNKQRTVVTVRDGMSVYDSLDKALKVRGLNQDCCVVYRLIKGRKTVTAWDNAIAPLDGEELIVE [T56N] | -0.278 ± 0.3
VKVYLPNKQRTVVTVRDGMSVYDSLDKALKVYGLNQDCCVVYRLIKGRKTVTAWDTAIAPLDGEELIVE [R32Y] | -0.012 ± 0.19
VKVYLPNKQRTVVTVRDGMSVYSSLDKALKVRGLNQDCCVVYRLIKGRKTVTAWDTAIAPLDGEELIVE [D23S] | -0.145 ± 0.065
VKVYLPNKQRTVVTVRDGMSVYDSLDKALKVRGLNQDCCVVYRLIKGRKTVTAWDTAIAPLDGEQLIVE [E65Q] | -0.184 ± 0.14
VKVYLPNKQRTVVTVRDGMSVYDSLDKALKVRGLHQDCCVVYRLIKGRKTVTAWDTAIAPLDGEELIVE [N35H] | -0.415 ± 0.37

Variant | abundance fitness
VKVYLPNKQRTVVTVRDGMSVYDSLDKALKCRGLNQDCCVVYRLIKGRKTVTAWDTAIAPLDGEELIVE [V31C] | -0.103 ± 0.086
VKVYLPNKQRTVVTVRDGMSVYDSLDKALKVRGLNQDCCVVYRLIKGMKTVTAWDTAIAPLDGEELIVE [R48M] | -0.183 ± 0.1
VKVYLPNKQRTVVTVRDGMSVYDSLDKAQKVRGLNQDCCVVYRLIKGRKTVTAWDTAIAPLDGEELIVE [L29Q] | -0.913 ± 0.23
VKVYLPNKQRTVVTVRDGMSVYDSLDKALKVRGLNQDCCVVYRLIKGRKTVTAWDTAINPLDGEELIVE [A59N] | -0.366 ± 0.21
VKVYLPNKQRTVVTVRDGMSVYDSLDKALKVRGLNQDCCVVYRLIKGRKTVTAWDTAIAFLDGEELIVE [P60F] | -0.036 ± 0.13
VKVYLPNKQRTVVTVRDGMSVYDSLDKALLVRGLNQDCCVVYRLIKGRKTVTAWDTAIAPLDGEELIVE [K30L] | -0.561 ± 0.087
VKVYLPNKQRTVVTVRDGMSVYDSLDKALKVRGLNQDCCVVYRLIKGRKTVTAWDTAIAPLDGWELIVE [E64W] | -0.215 ± 0.12
VKVYLPNKQRTVVTVRDGMSVYDNLDKALKVRGLNQDCCVVYRLIKGRKTVTAWDTAIAPLDGEELIVE [S24N] | -0.469 ± 0.23
VKVYLPNKQRTVVTVRDGMSVYDSLDKALKVRGLNQDCCVVYRLIKGRKTVTAWDTANAPLDGEELIVE [I58N] | -0.858 ± 0.45
VKVYLPNKQRTVVTVRDGMSVYDSLDKALKVRGLNQDCCVVYRLIKGRKTVTAWDTAIAPLDHEELIVE [G63H] | -0.63 ± 0.47
VKVYLPNKQRTVDTVRDGMSVYDSLDKALKVRGLNQDCCVVYRLIKGRKTVTAWDTAIAPLDGEELIVE [V13D] | -0.714 ± 0.23
VKVYLPNKQRTVVTVRDGMSVYDSLDKALKVRGLRQDCCVVYRLIKGRKTVTAWDTAIAPLDGEELIVE [N35R] | -0.101 ± 0.04
VKVYLPNKQRTVVTVRDGMSVYDSLDKALKVRGLNQDCCVVLRLIKGRKTVTAWDTAIAPLDGEELIVE [Y42L] | -1.02 ± 0.17
VKVYLPNKQRTYVTVRDGMSVYDSLDKALKVRGLNQDCCVVYRLIKGRKTVTAWDTAIAPLDGEELIVE [V12Y] | 0.019 ± 0.086
VKVYLPNKQRTVVTVRDGMSVYDSLDKALKVRGLNQDCCVVYRLIKGRKTVTAWDTAVAPLDGEELIVE [I58V] | -0.185 ± 0.049
VKVYLPNKQRTVVTVRDGMSVYDSLDKALKVWGLNQDCCVVYRLIKGRKTVTAWDTAIAPLDGEELIVE [R32W] | -0.203 ± 0.057
VKVYLPNKQRTVVTVRDGMSVYDSLDKALKVRGLNQDCCVVERLIKGRKTVTAWDTAIAPLDGEELIVE [Y42E] | -1.02 ± 0.26
VKVYLPNKQRTVVTVRDGMSVYDSLDKALKVRGLNQDCCVVYRLIKGRKTVTAWDTAIATLDGEELIVE [P60T] | 0.027 ± 0.078
VKVYLPNKQRTVVTVRDWMSVYDSLDKALKVRGLNQDCCVVYRLIKGRKTVTAWDTAIAPLDGEELIVE [G18W] | -0.636 ± 0.11
